# The nanobody polyreactivity screen of Harvey et al. (2022)
# Assay: yeast display, Sf9 membrane polyspecificity reagent, FACS + sequencing; frameworks hold sequencing errors
# Procedure, shortened: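 A synthetic nanobody library was expressed on Saccharomyces cerevisiae BJ5465 by galactose induction for 36–48 hours. The library was stained for 1 hour at 4 °C with 10% biotinylated, detergent-solubilized Sf9 membrane reagent and enriched with streptavidin microbeads before FACS. Low and high (top ~1%) gates were set on anti-HA fluorescence for expression and streptavidin fluorescence for reagent binding, and each polyreactivity label reflects the gate of origin.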
row,Sequence,polyreactivity (PSR sort gate)
1,QVQLVESGGVLVQAGGSLRLSCAASGFTFWSYAMGWYRQAPGKERELVAAISSGDNTYYADSVKGRFTISRDNAKNTVYLQMNSLKPEDTAVYYCNAFYYYEYDYWGQGTQVTVSS,low polyreactivity
2,QVQLVESGGVLVQAGGSLRLSCAASGIIFFGYAMGWYRQAPGKERELFAAISYSTGGTSTYADSVKGRFTISRDNAKNTVYLQKNSLKPEDTAVYYCAVRRQYRRAYSFSQSRYDYWGQGTQVTVSS,high polyreactivity
3,QVQLVESGGVLVQAGGSLRLSCAASGIIFRSNVMGWYRQAPGKERELVAAISTGGGRTYYADSVKGRFTISRDNAKNTVYLQMNILKPEDTAVYYCAAETTPYQPDGFDEYYYWGQGTQVTVSS,high polyreactivity
4,QVQLVESGGVLVQAGGSLRLSCAASGRIFGSYTMGWYRQAPGKERELVAGISRRGGSTYYADSVKGRFTISRDNAKNTVYLQMNSLNPEDTAVYYCAAVSSVFSVRYDYWGQGTQVTVSS,high polyreactivity
5,QVQLVESGGVLVQAGGSLRLSCAASGRIFPTYAMGWYRQAPGKERELVAAISQRGGSTYYADSVKGRFTISRDNAKNTVYLQMNSLKPEDTAVYYCAASYYRQSGEYDYWGQGTQVTVSS,low polyreactivity
6,QVQLVESGGVLVQAGGSLRLSCAASGRIFWLNAMGWYRQAPGKEREFVASITYGSDSTYYADSVKGRFTISRDNAKNTVYLQMNSRTPEDTAVYYCNREGWHYGPYGYWGQGTQVTVSS,low polyreactivity
7,QVQLVESGGVLVQAGGSLRLSCAASGRLFSRYTMGWYRQAPGKERELVAAIRNTGSTNYADSVKGRFTISRDNAKNTVYLQMNSLKPEDTAVYYCNARTAYVAYHYYYPQRMDYWGQGTQVTVSS,high polyreactivity
8,QVQLVESGGVLVQAGGSLRLSCAASGRSFDENSMGWYRQAPGKERELVAAITGGDSTNYADSVKGRFTISRDNAKNTVYLQMNSLKPEDTAVYYCAKDQERVTKGRFYLLEYYWGQGTQVTVSS,low polyreactivity
9,QVQLVESGGVLVQAGGSLRLSCAASGRTSKFYAMGWYRPAPGKERELVARITYSGGSTTYADSVKGRFTISRDNAKNTVYLQMNSLKPDDTAVYYFAITSQWLRRYYYWGQGTQVTVSS,high polyreactivity
10,QVQLVESGGVLVQAGGSLRLSCAASGSAFRENDMGWYRQAPGKERELVAAITFSGGSTYADSVKGRFTISRDIAKNTVYLQMNSLKPEDSAVYYCSADTLPAEYEYDYWGQGTQVTVSS,low polyreactivity
11,QVQLVESGGVLVQAGGSLRLSCAASGSIFKLNAMGWYRQAPGKERELVAVINKSGGRTFYADSVKGRFTISRDNAKNTVYLQMNRLKPEDTAVYYCNAVSNLAVNLDYWGQGTQVTVSS,high polyreactivity
12,QVQLVESGGVLVQAGGSLRLSCAASGSIFYVNAMGWYRQAPGKERELVATITTDGSTNYADSVKGRFTISRDNAKNTVYLPMNSLKPEDTAVYYCAAERWLATPTVPWYLYNYWGQGTQVTVSS,low polyreactivity
13,QVQLVESGGVLVQAGGSLRLSCAASGSLFSRYAMGWYRQAPGKERELVAAISSSGGSTYYADSVKGRFTISRDNAKNTVYLQMISLKREDTAVYDCGAELRYYLVWLYYWGQGTQVSVSS,low polyreactivity
14,QVQLVESGGVLVQAGGSLRLSCAASGSTFFLYMGWYRQAPGKERELVAAITVSGRSTYYADSVKGRFTISRDNAKNTVYLQMNSLKPEDTAVYYCNADWVLRYDYWGQGTQVTVSS,low polyreactivity
15,QVQLVESGGVLVQAGGSLRLSCAASGSTFPWYAMGWYRPAPGKERELVAAITARGTRTYYADSVKGRFTISRDNAKNTVYLQMNILKPEDTAVYYCNAGISSRYDYWGQGTQVTVSS,high polyreactivity
16,QVQLVESGGVLVQAGGSLRLSCAASGSTFWTNTMGWYRQAPGKERELVAAISRRGGTTYYADSVKGRFTISRDNAKNTVYLQMNSLKPEDTAVYYCATSLIGKTVPLRVYYWGQGTQVTVSS,high polyreactivity
